Reference: publication PMC4366279 (PLoS ONE, 2015)
Residue numbers refer to the chain shown, from its start.

Key:
[1] = biological target: T1, T. brucei RNA Editing Ligase 1 (TbREL1), full length wild type (Trypanosoma brucei, UniProt P86926 45-469, [35S]-methionine labelled); test: cell-based or functional assay
T1 sequence: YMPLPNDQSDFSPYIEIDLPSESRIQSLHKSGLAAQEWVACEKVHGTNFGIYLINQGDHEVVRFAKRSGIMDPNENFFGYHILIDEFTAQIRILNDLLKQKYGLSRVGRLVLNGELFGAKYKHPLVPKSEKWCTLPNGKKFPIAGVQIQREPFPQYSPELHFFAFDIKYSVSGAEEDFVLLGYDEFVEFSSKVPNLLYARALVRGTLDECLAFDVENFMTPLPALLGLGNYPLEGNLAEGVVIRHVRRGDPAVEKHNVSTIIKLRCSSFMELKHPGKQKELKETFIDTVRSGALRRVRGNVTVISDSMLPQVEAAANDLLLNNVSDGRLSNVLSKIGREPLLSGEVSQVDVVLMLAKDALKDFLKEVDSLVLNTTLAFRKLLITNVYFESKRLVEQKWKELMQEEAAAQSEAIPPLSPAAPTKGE

[2] = biological target: T2, TbREL1 E444A (Trypanosoma brucei, UniProt P86926 45-469, E444A, [35S]-methionine labelled); test: pull-down; His6-TbREL1 TNT mixture mixed with an equal volume of untagged KREPA2 TNT mixture, captured on magnetic His-tag isolation beads (Dynabeads); binding buffer 50 mM NaPO4 pH 8.0, 300 mM NaCl, 0.01% Tween 20; 20-30 min at 4°C; three washes; [35S]-methionine-labelled proteins on 10% SDS-PAGE, PhosphorImager; KREPA2-only control for background; settings: partners not purified
T2 construct: Site-directed mutagenesis of TbREL1-pET30a; source: in vitro translated (TNT reticulocyte lysate coupled transcription and translation system, Promega); not shown: His6, N-terminal, kept
T2 sequence: T1 sequence with E400A

[3] = biological target: T3, TbREL1 F206A (Trypanosoma brucei, UniProt P86926 45-469, F206A, [35S]-methionine labelled); test: as above; settings: partners not purified
T3 construct: Site-directed mutagenesis of TbREL1-pET30a; source: in vitro translated (TNT reticulocyte lysate coupled transcription and translation system, Promega); not shown: His6, N-terminal, kept
T3 sequence: T1 sequence with F162A

[4] = biological target: T4, TbREL1 K441A (Trypanosoma brucei, UniProt P86926 45-469, K441A, [35S]-methionine labelled); test: as above; settings: partners not purified
T4 construct: Site-directed mutagenesis of TbREL1-pET30a; source: in vitro translated (TNT reticulocyte lysate coupled transcription and translation system, Promega); not shown: His6, N-terminal, kept
T4 sequence: T1 sequence with K397A

B1: KREPA2 (natural protein)
chain: MYRRFFRSAAVKHLGTTSAQCLMRATKYPCGAMCRNASSCHPQTLGYQQRFQSTTDKKFHCSVCKKPFRLEMAAKLHLQQAHGGDGSVEAGPGPGVEASSVNVVSTPVPSPISPVERTFVDEEERRPRRMRPTPKPLHQPDRDIPAAAMEEMLGVWDKIGLNRLEGNFVHSTMVMKVFAAPPDVSEIPLYEHVAPEGENPFDSLDHMTTGTVDATYVGHDAFAEVDLVDPFVAAPDQTLNPFRAGKVRNPFTRISPTQREVVKPLQPPQPKEEPLKAPVTPFGQLPMFGQTREPSASFAAAAVSVQAAANPNEVSSPFAAAVSSSPFVGQVASPFAPAQDVAGSPFEASPCAASSPFVTAGGQETSPFAAPSTPASFGQGSLFPPMGTGAPGFTAITETEQRQQELEHGCPTCGKKFSTFEGAAMHSKSKHGIVLESKKVKDRLNRKGVPDLPAYVPSPVDLSSTSPFGTRSAIGASWAETELIPHAQCVSNITIVGRVLDVSQASENVSHVTVFVEGERSGEEETLTLCCFGEVSQKIRGTLKRNATIFASGTLRLHPVYEASNNKYYVSPVVHVSMPTGTLAVIT
modifications: [35S]-methionine labelled
notes: KREPA2 of T. brucei, the KREPA2 open reading frame, expressed untagged (63 kDa); source: in vitro translated (TNT reticulocyte lysate coupled transcription and translation system, Promega)
For B1, the “adenylylation activity of TbREL1, enhancement in the presence of equimolar KREPA2” value [1] was 6.7 fold, the “ligation activity of TbREL1 (pre-cleaved RNA ligation assay), enhancement in the presence of equimolar KREPA2” value [1] was 3.6 fold and the “relative pulldown (% of the KREPA2 pulled down by TbREL1 WT)” value [2] was less than 50%. For the same binder, the “relative pulldown (% of the KREPA2 pulled down by TbREL1 WT)” value [3] was less than 50% and the “relative pulldown (% of the KREPA2 pulled down by TbREL1 WT)” value [4] was less than 50%.
